Results published in paper doi:10.1101/2021.03.09.434456 (bioRxiv, 2021).

B1: mouse Kirrel2 WT ectodomain (domain or fragment, UniProt Q7TSU7 20-507, looked up)
chain: SPHFLQQPEDMVVLLGEEARLPCALGAYRGLVQWTKDGLALGGERDLPGWSRYWISGNSASGQHDLHIKPVELEDEASYECQASQAGLRSRPAQLHVMVPPEAPQVLGGPSVSLVAGVPGNLTCRSRGDSRPAPELLWFRDGIRLDGSSFHQTTLKDKATGTVENTLFLTPSSHDDGATLICRARSQALPTGRDTAVTLSLQYPPMVTLSAEPQTVQEGEKVTFLCQATAQPPVTGYRWAKGGSPVLGARGPRLEVVADATFLTEPVSCEVSNAVGSANRSTALEVLYGPILQAKPKSVSVDVGKDASFSCVWRGNPLPRITWTRMGGSQVLSSGPTLRLPSVALEDAGDYVCRAEPRRTGLGGGKAQARLTVNAPPVVTALQPAPAFLRGPARLQCVVFASPAPDSVVWSWDEGFLEAGSLGRFLVEAFPAPEVEGGQGPGLISVLHISGTQESDFTTGFNCSARNRLGEGRVQIHLGRRDLLPTVR
B2: mouse Kirrel3 D1 (domain or fragment)
chain: VYSFSQQPQDQVVVSGQPVTLLCAIPEYDGFVLWIKDGLALGVGRDLSSYPQYLVVGNHLSGEHHLKILRAELQDDAVYECQAIQAAIRSRPARLTVLVP
B3: mouse Kirrel2 D1 (domain or fragment)
chain: PHFLQQPEDMVVLLGEEARLPCALGAYRGLVQWTKDGLALGGERDLPGWSRYWISGNSASGQHDLHIKPVELEDEASYECQASQAGLRSRPAQLHVMVP
B4: mouse Kirrel3 WT ectodomain (domain or fragment, UniProt Q8BR86 22-535, looked up)
chain: LQKRGCCLVLGYMAKDKFRRMNEGQVYSFSQQPQDQVVVSGQPVTLLCAIPEYDGFVLWIKDGLALGVGRDLSSYPQYLVVGNHLSGEHHLKILRAELQDDAVYECQAIQAAIRSRPARLTVLVPPDDPIILGGPVISLRAGDPLNLTCHADNAKPAASIIWLRKGEVINGATYSKTLLRDGKRESIVSTLFISPGDVENGQSIVCRATNKAIPGGKETSVTIDIQHPPLVNLSVEPQPVLEDNIVTFHCSAKANPAVTQYRWAKRGHIIKEASGELYRTTVDYTYFSEPVSCEVTNALGSTNLSRTVDVYFGPRMTSEPQSLLVDLGSDAVFSCAWIGNPSLTIVWMKRGSGVVLSNEKTLTLKSVRQEDAGKYVCRAVVPRVGAGEREVTLTVNGPPIISSTQTQHALHGEKGQIKCFIRSTPPPDRIAWSWKENVLESGTSGRYTVETVNTEEGVISTLTISNIVRADFQTIYNCTAWNSFGSDTEIIRLKEQGSEMKSGAGLEAESVPMA

How the values were obtained:
AUC + SEC = target: the molecule itself; assay: AUC + SEC
AUC = target: the molecule itself; assay: AUC
crystal structure = target: the molecule itself; assay: crystal structure

Protein	koff (AUC + SEC)	Kd (AUC)	stoichiometry N (AUC)	binding result (crystal structure)
B1	> 0.001 s⁻¹	900 nM	2	–
B2	–	–	–	binds
B3	–	–	–	binds
B4	> 0.001 s⁻¹	210 nM	2	–
